From patent US6727084B1, “Cold-active beta-galactosidase, the process for its preparation and the use thereof” (Universite de Liege, priority 1999, dated 2004)

Substrate: OC[C@H]1O[C@@H](O[C@H]2[C@H](O)[C@@H](O)C(O)O[C@@H]2CO)[C@H](O)[C@@H](O)[C@H]1O
Experiment: kinetics of LMG P-19143 β-galactosidase with lactose as substrate (galactose dehydrogenase assay)
Type: biochemical, Pseudoalteromonas haloplanktis LMG P-19143
Settings: other: lactose (1 mM to 50 mM) as substrate, 25° C., pH 7.3
From the text: The definition of enzyme activity units can be defined according to the substrate used with lactose as a substrate, the unit of activity is defined as the amount of enzyme which releases one micro-mole glucose in one minute under standard reaction conditions (temperature, pH). Another commonly used substrate is ortho-nitrophenyl-β-D galactopyranoside (ONPG) and in this case, the unit of activity is defined as the amount of enzyme which hydrolyses one micro-mole of ONPG in one minute under standard reaction conditions.
Km was also determined at 25° C. with lactose (1 mM to 50 mM) as a substrate.

B1: Pseudoalteromonas haloplanktis LMG P-19143 cold-active β-galactosidase (lac Z), native, SEQ ID NO: 2 (Pseudoalteromonas haloplanktis) (protein)
chain: MTSLQHIINRRDWENPITVQVNQVKAHSPLNGFKTIEDARENTQSQKKSLNGQWDFKLFDKPEAVDESLLYEKISKELSGDWQSITVPSNWQLHGFDKPIYCNVKYPFAVNPPFVPSDNPTGCYRTEFTITPEQLTQRNHIIFEGVNSAFHLWCNGQWVGYSQDSRLPSEFDLSELLVVGTNRIAVMVIRWSDGSYLEDQDMWWLSGIFRDVNLLTKPQSQIRDVFITPDLDACYRDATLHIKTAINAPNNYQVAVQIFDGKTSLCEPKIQSTNNKRVDEKGGWSDVVFQTIAIRSPKKWTAETPYLYRCVVSLLDEQGNTVDVEAYNIGFRKVEMLNGQLCVNGKPLLIRGVNRHEHHPENGHAVSTADMIEDIKLMKQNNFNAVRTAHYPNHPLFYELCDELGLYVVDEANIETHGMFPMGRLASDPLWAGAFMSRYTQMVERDKNHASIIIWSLGNECGHGANHDAMYGWSKSFDPSRPVQYEGGGANTTATDIICPMYSRVDTDIKDDAVPKYSIKKWLSLPGETRPLILCEYAHAMGNSLGSFDDYWQAFREYPRLQGGFIWDWVDQGLSKIDENGKHYWAYGGDFGDELNDRQFCINGLLFPDRTPHPSLFEAKYSQQHLQFTLREQNQNQNQNQYSIDVFSDYVFRHTDNEKLVWQLIQNGVCVEQGEMALNIAPQSTHTLTIKTKTAFEHGAQYYLNLDVALINDSHFANANHVMDSEQFKLINSNNLNSKSFASATEKSVISVNETDSHLSIENNTFKLVFNQQSGLIEQWLQDDTQVISSPLVDNFYRAPLDNDIGVSEVDNLDPNAWEARWSRAGIGQWQRTCSSINAVQSSVDVRITCVFNYEFNGVLQAQTQWLYTLNNTGTISLNVDVNLNDTLPPMPRIGLSTTINKQSDTKVNWLGLGPFENYPDRKSAARFGYYSLSLNELYTPYIFPTDNGLRSDCQLLSINNLIVTGAFLFAASEYSQNMLTQAKHTNELIADDCIHVHIDHQHMGVGGDDSWSPSTHKEYLLEQKNYNYSLTLTGGITT
notes: ORF of 1038 residues
- Km: 2400 µM
